# Measured values published in paper PMC6829862, “Gγ and Gα Identity Dictate a G-Protein Heterotrimer Plasma Membrane Targeting” (Cells, 2019).
# B1: Citrine–Gαs (natural protein)
# chain: MGCLGNSKTEDQRNEEKAQREANKKIEKQLQKDKQVYRATHRLLLLGAGESGKSTIVKQMRILHVNGFNGNSDGEKATKVQDIKNNLKEAIETIVAAMSNLVPPVELANPENQFRVDYILSVMNVPDFDFPPEFYEHAKALWEDEGVRACYERSNEYQLIDCAQYFLDKIDVIKQADYVPSDQDLLRCRVLTSGIFETKFQVDKVNFHMFDVGGQRDERRKWIQCFNDVTAIIFVVASSSYNMVIREDNQTNRLQEALNLFKSIWNNRWLRTISVILFLNKQDLLAEKVLAGKSKIEDYFPEFARYTTPEDATPEPGEDPRVTRAKYFIRDEFLRISTASGDGRHYCYPHFTCAVDTENIRRVFNDCRDIIQRMHLRQYELL
# notes: Gαs subunit (stimulatory G-protein alpha subunit); cDNA in pcDNA3.1+ from UMR cDNA Resource Center; also called wild-type Gαs; loop-tagged Gαs; source: HEK 293, transiently transfected; in living cells (FLIM-FRET) and in cell lysate (pull-down); not shown: Citrine, internal (in place of the loop Glu71-Ser82), kept
# Molecular target: T1, mCherry–Gβ1γ2 dimer (UniProt P62873 1-340; P59768 1-71, 20-carbon geranylgeranyl lipid on the cysteine of the C-terminal CaaX motif (said of Gγ2 in general))
# T1 construct: Gβ1 subunit; cDNA in pcDNA3.1+ from UMR cDNA Resource Center; FP cloned at the N-terminus; Gγ2 subunit; source: HEK 293, transiently co-transfected (mCherry–Gβ1 and Gγ2), in living cells; not shown: mCherry, N-terminal, kept
# Test: FRET or BRET; FLIM-FRET in living transiently transfected HEK 293 cells at 37 °C; donor Citrine in Gα, acceptor mCherry on Gβ1 with the appropriate Gγ; efficiency E = 1 − τda/τd from the short lifetime component τ1 (donor alone 2.7 ± 0.1 ns), analysed only at the plasma membrane; GppNHp added to the culture did not change the signal
# Conditions: partners not purified
binder,measurement,value
B1,FRET efficiency,19.7%
